The term Kd denotes a measure of binding affinity in units of concentration. A word on the koff: it is a measure of how fast the partners let go of each other. High values mean fast dissociation, low ones slow dissociation. A word on the kon: it is the rate constant with which the complex forms. Low values mean slow association, high ones fast association.

From article PMC11266248, “Production, purification, and quality assessment of borrelial proteins CspZ from Borrelia burgdorferi and FhbA from Borrelia hermsii” (Applied Microbiology and Biotechnology, 2024) come the findings set out here.

This experiment has as its target T1, purified human complement factor H from human plasma/serum (human, UniProt P08603 19-1231).
T1 construct: human complement factor H, serum glycoprotein of 20 SCR domains (NCBI gene number 3075); also called FH; Human purified FH; source: bought: Sigma/Merck C5813 (batch SLCP3577), purified from human plasma; provided by Prof; Clark
In words: SPR; Biacore T100, CM5 chip; FH (750 RU), rFHL-1 or rFH15-20 (200 RU) amine-coupled as ligands; CspZ or FhbA as analytes; PBS with 0.05% Tween20, 25 °C, 30 µl/min; single-cycle and multiple-cycle kinetics, Langmuir 1:1 model; in duplicate. As to conditions: both partners purified. For orientation: In SPR one partner is held on a chip, and binding of the other changes the refractive index at the surface.

T1 sequence (P08603 19-1231): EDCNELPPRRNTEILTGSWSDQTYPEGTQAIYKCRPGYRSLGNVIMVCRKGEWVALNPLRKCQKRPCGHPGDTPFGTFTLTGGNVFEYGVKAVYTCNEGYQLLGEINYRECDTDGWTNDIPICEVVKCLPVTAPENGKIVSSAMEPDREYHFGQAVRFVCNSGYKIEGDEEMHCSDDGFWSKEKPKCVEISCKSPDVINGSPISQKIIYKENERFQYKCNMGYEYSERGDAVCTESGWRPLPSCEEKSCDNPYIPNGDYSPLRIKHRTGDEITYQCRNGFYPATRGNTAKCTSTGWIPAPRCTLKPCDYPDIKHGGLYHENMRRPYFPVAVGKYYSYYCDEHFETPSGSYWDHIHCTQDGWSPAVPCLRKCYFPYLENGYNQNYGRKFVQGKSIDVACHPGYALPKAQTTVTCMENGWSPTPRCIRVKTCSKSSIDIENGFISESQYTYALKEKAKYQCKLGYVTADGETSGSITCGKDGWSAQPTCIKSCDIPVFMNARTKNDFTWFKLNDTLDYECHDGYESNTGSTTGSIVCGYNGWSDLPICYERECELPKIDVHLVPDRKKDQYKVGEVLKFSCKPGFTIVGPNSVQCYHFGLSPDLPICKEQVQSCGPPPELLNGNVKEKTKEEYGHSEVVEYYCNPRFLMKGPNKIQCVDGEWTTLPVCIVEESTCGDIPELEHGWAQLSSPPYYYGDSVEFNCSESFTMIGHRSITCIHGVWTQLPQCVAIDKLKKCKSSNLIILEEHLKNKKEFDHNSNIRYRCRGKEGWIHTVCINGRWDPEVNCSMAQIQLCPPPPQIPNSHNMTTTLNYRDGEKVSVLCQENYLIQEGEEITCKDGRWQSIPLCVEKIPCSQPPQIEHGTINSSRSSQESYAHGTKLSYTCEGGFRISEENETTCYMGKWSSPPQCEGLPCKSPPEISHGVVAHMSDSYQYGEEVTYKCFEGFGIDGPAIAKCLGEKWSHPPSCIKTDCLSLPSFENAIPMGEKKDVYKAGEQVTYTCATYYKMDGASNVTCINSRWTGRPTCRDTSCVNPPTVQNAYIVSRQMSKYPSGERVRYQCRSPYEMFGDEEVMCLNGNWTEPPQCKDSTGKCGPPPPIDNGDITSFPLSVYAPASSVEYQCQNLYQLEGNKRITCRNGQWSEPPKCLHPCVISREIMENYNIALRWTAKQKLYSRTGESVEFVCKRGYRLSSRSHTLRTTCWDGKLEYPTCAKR

B1: CspZ from Borrelia burgdorferi sensu stricto (complement regulator-acquiring surface protein 2) (natural protein)
chain: DVSRLNQRNINELKIFVEKAKYYSIKLDAIYNECTGAYNDIMTYSEGTFSDQSKVNQAISIFKKDNKIVNKFKELEKIIEEYKPMFLSKLIDDFAIELDQAVDNDVSNARHVADSYKKLRKSVVLAYIESFDVISSKFVDSKFVEASKKFVNKAKEFVEENDLIALECIVKTIGDMVNDREINSRSRYNNFYKKEADFLGAAVELEGAYKAIKQTLL
notes: CspZ (BbCRASP-2/BBH06), surface lipoprotein of Borrelia burgdorferi sensu stricto (NCBI txid139), encoded by cspZ on lp28-3; theoretical mass of the tagged protein 27.5 kDa, measured mass fits the predicted value without the N-terminal methionine; Two plasmids coding for N-terminally His6-tagged CspZ are named (pET-45(+) from Prof. Marconi, pETM-11 from Dr. Brangulis); also called BbCRASP-2; …
On to B1, for which binding was characterised by a dissociation constant (Kd) of 0.209 ± 0.141 nM, the koff came to 5.31e-05 s⁻¹ and the kon was determined as 255000 M⁻¹ s⁻¹.
